{"source": "patent US20150147274A1", "about": "(CANCER RESEARCH TECHNOLOGY, published 2015)", "data": [{"target": "T1, MET928 (cMET protein derived from construct 25-928) (human, UniProt P08581 25-928)", "T1 construct": "MET ectodomain, residues 1-24 are the leader; produced in Lec 8 cells; background text says the ectodomain is furin-cleaved into alpha (25-307) and beta chains; biotinylated form used in selections; also called MET928 extracellular domain; Met extracellular domain", "T1 sequence (P08581 25-928)": "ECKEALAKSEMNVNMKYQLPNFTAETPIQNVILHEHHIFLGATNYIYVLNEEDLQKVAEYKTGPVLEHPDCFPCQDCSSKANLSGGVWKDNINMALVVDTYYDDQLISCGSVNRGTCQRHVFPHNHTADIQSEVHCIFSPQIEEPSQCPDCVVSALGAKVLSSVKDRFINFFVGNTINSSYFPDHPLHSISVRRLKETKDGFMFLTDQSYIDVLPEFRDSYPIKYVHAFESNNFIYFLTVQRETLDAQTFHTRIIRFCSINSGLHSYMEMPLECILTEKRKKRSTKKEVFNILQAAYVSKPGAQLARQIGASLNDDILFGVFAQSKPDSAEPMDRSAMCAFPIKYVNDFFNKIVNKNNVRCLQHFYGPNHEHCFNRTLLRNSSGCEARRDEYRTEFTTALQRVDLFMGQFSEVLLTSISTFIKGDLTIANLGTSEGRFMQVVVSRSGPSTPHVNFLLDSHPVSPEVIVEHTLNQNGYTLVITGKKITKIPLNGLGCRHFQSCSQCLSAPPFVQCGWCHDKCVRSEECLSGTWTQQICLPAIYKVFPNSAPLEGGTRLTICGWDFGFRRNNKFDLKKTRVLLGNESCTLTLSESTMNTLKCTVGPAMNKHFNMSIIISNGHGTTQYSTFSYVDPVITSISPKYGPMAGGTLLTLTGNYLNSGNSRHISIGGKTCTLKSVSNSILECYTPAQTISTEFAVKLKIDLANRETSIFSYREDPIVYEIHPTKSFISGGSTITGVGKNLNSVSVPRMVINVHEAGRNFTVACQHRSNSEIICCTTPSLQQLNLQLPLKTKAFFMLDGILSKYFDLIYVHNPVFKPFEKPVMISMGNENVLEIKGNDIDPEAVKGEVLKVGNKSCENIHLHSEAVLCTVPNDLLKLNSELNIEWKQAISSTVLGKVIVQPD", "test": "ELISA, soluble scFv", "values": [{"binder": "111_C6 (scFv, not shown: 6xHis/tri-FLAG tags) scFv: QMQLVQSGAEVKKPGAPVKVSCKVSGYTFTDYYMHWVQQAPGKGLEWMGLVDPEDGETIYAEKFQGRVTITADTSTDTAYMELSSLRSEDTAVYYCATDATTPYWFPQHWGQGTLVTVSSLEGGGGSGGGGSGGGASDIQMTQSPSSLSASVGDRVTITCQASQDISNYLNWYQQKPGRAPKVLIYDASNLETGVPSRFSGSGSGTEFTLTISNLRPDDFATYYCQQGDSFPLTFGGGTKVEIK", "binding result": "binds"}, {"binder": "111_C8 (scFv, not shown: 6xHis/tri-FLAG tags) scFv: QMQLVQSGAEVKKPGAPVKVSCKVSGYTFTDYYMHWVQQAPGKGLEWMGLVDPEDGETIYAEKFQGRVTITADTSTDTAYMELSSLRSEDTAVYYCATDATTPYWFPVVWGQGTLVTVSSLEGGGGSGGGGSGGGASDIQMTQSPSSLSASVGDRVTITCQASQDISNYLNWYQQKPGRAPKVLIYDASNLETGVPSRFSGSGSGTEFTLTISNLRPDDFATYYCQQGDSFPLTFGGGTKVEIK", "binding result": "binds"}, {"binder": "111_D1 (scFv, not shown: 6xHis/tri-FLAG tags) scFv: QMQLVQSGAEVKKPGAPVKVSCKVSGYTFTDYYMHWVQQAPGKGLEWMGLVDPEDGETIYAEKFQGRVTITADTSTDTAYMELSSLRSEDTAVYYCATDATTPYWGMDEWGQGTLVTVSSLEGGGGSGGGGSGGGASDIQMTQSPSSLSASVGDRVTITCQASQDISNYLNWYQQKPGRAPKVLIYDASNLETGVPSRFSGSGSGTEFTLTISNLRPDDFATYYCQQGDSFPLTFGGGTKVEIK", "binding result": "binds"}, {"binder": "111_D2 (scFv, not shown: 6xHis/tri-FLAG tags) scFv: QMQLVQSGAEVKKPGAPVKVSCKVSGYTFTDYYMHWVQQAPGKGLEWMGLVDPEDGETIYAEKFQGRVTITADTSTDTAYMELSSLRSEDTAVYYCATDATTPYWFPWIWGQGTLVTVSSLEGGGGSGGGGSGGGASDIQMTQSPSSLSASVGDRVTITCQASQDISNYLNWYQQKPGRAPKVLIYDASNLETGVPSRFSGSGSGTEFTLTISNLRPDDFATYYCQQGDSFPLTFGGGTKVEIK", "binding result": "binds"}, {"binder": "111_C9 (scFv, not shown: 6xHis/tri-FLAG tags) scFv: QMQLVQSGAEVKKPGAPVKVSCKVSGYTFTDYYMHWVQQAPGKGLEWMGLVDPEDGETIYAEKFQGRVTITADTSTDTAYMELSSLRSEDTAVYYCATDATTPYWGMMAWGQGTLVTVSSLEGGGGSGGGGSGGGASDIQMTQSPSSLSASVGDRVTITCQASQDISNYLNWYQQKPGRAPKVLIYDASNLETGVPSRFSGSGSGTEFTLTISNLRPDDFATYYCQQGDSFPLTFGGGTKVEIK", "binding result": "binds"}, {"binder": "111_C10 (scFv, not shown: 6xHis/tri-FLAG tags) scFv: QMQLVQSGAEVKKPGAPVKVSCKVSGYTFTDYYMHWVQQAPGKGLEWMGLVDPEDGETIYAEKFQGRVTITADTSTDTAYMELSSLRSEDTAVYYCATDATTPYWTPEIWGQGTLVTVSSLEGGGGSGGGGSGGGASDIQMTQSPSSLSASVGDRVTITCQASQDISNYLNWYQQKPGRAPKVLIYDASNLETGVPSRFSGSGSGTEFTLTISNLRPDDFATYYCQQGDSFPLTFGGGTKVEIK", "binding result": "binds"}, {"binder": "111_D3 (scFv, not shown: 6xHis/tri-FLAG tags) scFv: QMQLVQSGAEVKKPGAPVKVSCKVSGYTFTDYYMHWVQQAPGKGLEWMGLVDPEDGETIYAEKFQGRVTITADTSTDTAYMELSSLRSEDTAVYYCATDATTPYWGAALWGQGTLVTVSSLEGGGGSGGGGSGGGASDIQMTQSPSSLSASVGDRVTITCQASQDISNYLNWYQQKPGRAPKVLIYDASNLETGVPSRFSGSGSGTEFTLTISNLRPDDFATYYCQQGDSFPLTFGGGTKVEIK", "binding result": "binds"}, {"binder": "111_C12 (scFv, not shown: 6xHis/tri-FLAG tags) scFv: QMQLVQSGAEVKKPGAPVKVSCKVSGYTFTDYYMHWVQQAPGKGLEWMGLVDPEDGETIYAEKFQGRVTITADTSTDTAYMELSSLRSEDTAVYYCATDATTPYWFPRYWGQGTLVTVSSLEGGGGSGGGGSGGGASDIQMTQSPSSLSASVGDRVTITCQASQDISNYLNWYQQKPGRAPKVLIYDASNLETGVPSRFSGSGSGTEFTLTISNLRPDDFATYYCQQGDSFPLTFGGGTKVEIK", "binding result": "binds"}]}]}
